According to patent US20200165325A1:

Tests used:
[1] = molecular target: HIV-1 Env of strain 3016.v5.c45 (HIV-1)
[2] = molecular target: HIV-1 Env of strain Ce0682_E4 (HIV-1)
[3] = molecular target: HIV-1 Env of strain Du172.17 (HIV-1)
[4] = molecular target: HIV-1 Env of strain C1080.c03 (HIV-1)
[5] = molecular target: HIV-1 Env of strain Ce2060_G9 (HIV-1)
[6] = molecular target: HIV-1 Env of strain X1193_c1 (HIV-1)
[7] = molecular target: HIV-1 Env of strain 89-F1_2_25 (HIV-1)
[8] = molecular target: HIV-1 Env of strain CAAN5342.A2 (HIV-1)
[9] = molecular target: HIV-1 Env of strain AC10.0.29 (HIV-1)
[10] = molecular target: HIV-1 Env of strain 3301.v1.c24 (HIV-1)
[11] = molecular target: HIV-1 Env of strain 0815.v3.c3 (HIV-1)
[12] = molecular target: HIV-1 Env of strain 6811.v7.c18 (HIV-1)
[13] = molecular target: HIV-1 Env of strain 3415.v1.c1 (HIV-1)
[14] = molecular target: HIV-1 Env of strain PVO.4 (HIV-1)
[15] = molecular target: HIV-1 Env of strain THRO4156.18 (HIV-1)
[16] = molecular target: HIV-1 Env of strain 6540.v4.c1 (HIV-1)
[17] = molecular target: HIV-1 Env of strain CNE20 (HIV-1)
[18] = molecular target: HIV-1 Env of strain RHPA4259.7 (HIV-1)
[19] = molecular target: HIV-1 Env of strain REJO4541.67 (HIV-1)
[20] = molecular target: HIV-1 Env of strain HIV-16845-2.22 (HIV-1)
[21] = molecular target: HIV-1 Env of strain ZM135M.PL10a (HIV-1)
[22] = molecular target: HIV-1 Env of strain Q461.e2 (HIV-1)
[23] = molecular target: HIV-1 Env of strain T278-50 (HIV-1)
[24] = molecular target: HIV-1 Env of strain Q23.17 (HIV-1)
[25] = molecular target: HIV-1 Env of strain Q259.d2.17 (HIV-1)
[26] = molecular target: HIV-1 Env of strain CNE58 (HIV-1)
[27] = molecular target: HIV-1 Env of strain ZM233M.PB6 (HIV-1)
[28] = molecular target: HIV-1 Env of strain Ce1176_A3 (HIV-1)
[29] = molecular target: HIV-1 Env of strain 211-9 (HIV-1)
[30] = molecular target: HIV-1 Env of strain 1006_11_C3_1601 (HIV-1)
[31] = molecular target: HIV-1 Env of strain TRJO4551.58 (HIV-1)
[32] = molecular target: HIV-1 Env of strain ZM197M.PB7 (HIV-1)
[33] = molecular target: HIV-1 Env of strain C3347.c11 (HIV-1)
[34] = molecular target: HIV-1 Env of strain T251-18 (HIV-1)
[35] = molecular target: HIV-1 Env of strain ZM214M.PL15 (HIV-1)
[36] = molecular target: HIV-1 Env of strain 0330.v4.c3 (HIV-1)
[37] = molecular target: HIV-1 Env of strain C2101.c01 (HIV-1)
[38] = molecular target: HIV-1 Env of strain 703357.C02 (HIV-1)
[39] = molecular target: HIV-1 Env of strain 6480.v4.c25 (HIV-1)
[40] = molecular target: HIV-1 Env of strain T257-31 (HIV-1)
[41] = molecular target: HIV-1 Env of strain R2184.c04 (HIV-1)
[42] = molecular target: HIV-1 Env of strain ZM249M.PL1 (HIV-1)
[43] = molecular target: HIV-1 Env of strain P1981_C5_3 (HIV-1)
[44] = molecular target: HIV-1 Env of strain 3103.v3.c10 (HIV-1)
[45] = molecular target: HIV-1 Env of strain CAP45.2.00.G3 (HIV-1)
[46] = molecular target: HIV-1 Env of strain X2131_C1_B5 (HIV-1)
[47] = molecular target: HIV-1 Env of strain 231965.c01 (HIV-1)
[48] = molecular target: HIV-1 Env of strain 6545.v4.c1 (HIV-1)
[49] = molecular target: HIV-1 Env of strain ZM109F.PB4 (HIV-1)
[50] = molecular target: HIV-1 Env of strain Ce703010054_2A2 (HIV-1)
[51] = molecular target: HIV-1 Env of strain WEAU_d15_410_787 (HIV-1)
[52] = molecular target: HIV-1 Env of strain 3718.v3.c11 (HIV-1)
[53] = molecular target: HIV-1 Env of strain CNE17 (HIV-1)
[54] = molecular target: HIV-1 Env of strain 1054_07_TC4_1499 (HIV-1)
[55] = molecular target: HIV-1 Env of strain Ce0393_C3 (HIV-1)
[56] = molecular target: HIV-1 Env of strain T250-4 (HIV-1)
[57] = molecular target: HIV-1 Env of strain R1166.c01 (HIV-1)

For NIH45-46 G54F IgG (antibody), the In vitro neutralization IC80 [1] was 37 µg/mL, the In vitro neutralization IC80 [2] was 0.056 µg/mL and the In vitro neutralization IC80 [3] was > 50 µg/mL. The In vitro neutralization IC80 [4] was 2.26 µg/mL, the In vitro neutralization IC80 [5] was 0.085 µg/mL and the In vitro neutralization IC80 [6] was 0.026 µg/mL. For the same substance, the In vitro neutralization IC80 [7] was > 50 µg/mL, the In vitro neutralization IC80 [8] was 0.28 µg/mL and the In vitro neutralization IC80 [9] was 1.12 µg/mL. For the same substance, the In vitro neutralization IC80 [10] was 0.011 µg/mL, the In vitro neutralization IC80 [11] was 0.014 µg/mL and the In vitro neutralization IC80 [12] was 0.063 µg/mL. The In vitro neutralization IC80 [13] was 0.029 µg/mL, the In vitro neutralization IC80 [14] was 0.25 µg/mL and the In vitro neutralization IC80 [15] was 3.01 µg/mL. The In vitro neutralization IC80 [16] was > 50 µg/mL, the In vitro neutralization IC80 [17] was 3.91 µg/mL and the In vitro neutralization IC80 [18] was 0.02 µg/mL. It also gave an In vitro neutralization IC80 [19] of 0.028 µg/mL, an In vitro neutralization IC80 [20] of 2.75 µg/mL and an In vitro neutralization IC80 [21] of 0.43 µg/mL. For the same substance, the In vitro neutralization IC80 [22] was 0.135 µg/mL, the In vitro neutralization IC80 [23] was > 50 µg/mL and the In vitro neutralization IC80 [24] was 0.07 µg/mL. It also gave an In vitro neutralization IC80 [25] of 0.036 µg/mL, an In vitro neutralization IC80 [26] of 0.11 µg/mL and an In vitro neutralization IC80 [27] of 0.99 µg/mL. The In vitro neutralization IC80 [28] was 0.83 µg/mL, the In vitro neutralization IC80 [29] was > 50 µg/mL and the In vitro neutralization IC80 [30] was 0.024 µg/mL. It also gave an In vitro neutralization IC80 [31] of 0.08 µg/mL, an In vitro neutralization IC80 [32] of 0.23 µg/mL and an In vitro neutralization IC80 [33] of 0.059 µg/mL. For the same substance, the In vitro neutralization IC80 [34] was 1.38 µg/mL, the In vitro neutralization IC80 [35] was 0.3 µg/mL and the In vitro neutralization IC80 [36] was 0.13 µg/mL. For the same substance, the In vitro neutralization IC80 [37] was 0.42 µg/mL, the In vitro neutralization IC80 [38] was > 50 µg/mL and the In vitro neutralization IC80 [39] was 0.046 µg/mL. For the same substance, the In vitro neutralization IC80 [40] was 0.51 µg/mL, the In vitro neutralization IC80 [41] was 0.054 µg/mL and the In vitro neutralization IC80 [42] was 0.016 µg/mL. The In vitro neutralization IC80 [43] was 0.11 µg/mL, the In vitro neutralization IC80 [44] was 1.28 µg/mL and the In vitro neutralization IC80 [45] was > 50 µg/mL. For the same substance, the In vitro neutralization IC80 [46] was 0.41 µg/mL, the In vitro neutralization IC80 [47] was 0.062 µg/mL and the In vitro neutralization IC80 [48] was > 50 µg/mL. The In vitro neutralization IC80 [49] was 0.17 µg/mL, the In vitro neutralization IC80 [50] was 0.07 µg/mL and the In vitro neutralization IC80 [51] was 0.004 µg/mL. It also gave an In vitro neutralization IC80 [52] of 4.62 µg/mL, an In vitro neutralization IC80 [53] of 0.287 µg/mL and an In vitro neutralization IC80 [54] of 0.283 µg/mL. For the same substance, the In vitro neutralization IC80 [55] was 0.173 µg/mL, the In vitro neutralization IC80 [56] was > 50 µg/mL and the In vitro neutralization IC80 [57] was 1.32 µg/mL.
